Laboratory results taken from US20150080554A1.

How the values were obtained:
[1] = biological target: polyclonal human IgG (Gammanorm, Octapharma) (human); experiment: breakthrough on ligand-coupled agarose column; 1 mg/ml IgG in 20 mM PBS + 0.15 M NaCl pH 7.4; residence time 6 min; ligand density 6.7 mg/ml
[2] = biological target: polyclonal human IgG (Gammanorm, Octapharma) (human); experiment: gradient elution pH 6 to pH 3, 0.1 M citrate, from ligand-coupled agarose column
[3] = biological target: polyclonal human IgG (Gammanorm, Octapharma) (human); experiment: breakthrough on ligand-coupled agarose column; 1 mg/ml IgG in 20 mM PBS + 0.15 M NaCl pH 7.4; residence time 2.4 min; ligand density 6.7 mg/ml
[4] = biological target: mAb (Table 2, column 'pH mAb'); experiment: gradient elution pH 6 to pH 3, 0.1 M citrate, from ligand-coupled agarose column; about 10 mg cell culture supernatant loaded
[5] = biological target: polyclonal human IgG (Gammanorm, Octapharma) (human); experiment: breakthrough on ligand-coupled agarose column; 1 mg/ml IgG in 20 mM PBS + 0.15 M NaCl pH 7.4; residence time 2.4 min; ligand density 6.9 mg/ml
[6] = biological target: polyclonal human IgG (Gammanorm, Octapharma) (human); experiment: breakthrough on ligand-coupled agarose column; 1 mg/ml IgG in 20 mM PBS + 0.15 M NaCl pH 7.4; residence time 6 min; ligand density 6.9 mg/ml
[7] = biological target: polyclonal human IgG (Gammanorm, Octapharma) (human); experiment: breakthrough on ligand-coupled agarose column; 1 mg/ml IgG in 20 mM PBS + 0.15 M NaCl pH 7.4; residence time 2.4 min; ligand density 5.3 mg/ml
[8] = biological target: polyclonal human IgG (Gammanorm, Octapharma) (human); experiment: breakthrough on ligand-coupled agarose column; 1 mg/ml IgG in 20 mM PBS + 0.15 M NaCl pH 7.4; residence time 6 min; ligand density 5.3 mg/ml

Row | Substance | Qb10% (dynamic binding capacity at 10% breakthrough) [1] | Qb80% (dynamic binding capacity at 80% breakthrough) [1] | elution pH at peak apex, pH hIgG (first peak) [2] | elution pH at peak apex, pH hIgG (second peak) [2] | Qb10% (dynamic binding capacity at 10% breakthrough) [3] | Qb80% (dynamic binding capacity at 80% breakthrough) [3] | elution pH at peak apex, pH mAb [4] | Qb10% (dynamic binding capacity at 10% breakthrough) [5] | Qb80% (dynamic binding capacity at 80% breakthrough) [5] | Qb10% (dynamic binding capacity at 10% breakthrough) [6] | Qb80% (dynamic binding capacity at 80% breakthrough) [6] | Qb10% (dynamic binding capacity at 10% breakthrough) [7] | Qb80% (dynamic binding capacity at 80% breakthrough) [7] | Qb10% (dynamic binding capacity at 10% breakthrough) [8] | Qb80% (dynamic binding capacity at 80% breakthrough) [8]
1 | Comparative prototype Z(H18S)4 (designed binder) | 55 mg/ml resin | 67.5 mg/ml resin | 5.1 pH | 4.61 pH | 37 mg/ml resin | 62.2 mg/ml resin |  |  |  |  |  |  |  |  | 
2 | Mutant Z(H18S,N28A)4 (designed binder) |  |  | 5.68 pH | 5.15 pH |  |  | 5.05 pH | 35.2 mg/ml resin | 56 mg/ml resin | 45.9 mg/ml resin | 59.1 mg/ml resin |  |  |  | 
3 | Mutant Z(H18S,P57I)4 (designed binder) |  |  | 5.44 pH | 4.91 pH |  |  | 4.71 pH |  |  |  |  | 35.6 mg/ml resin | 56 mg/ml resin | 47 mg/ml resin | 58 mg/ml resin
